Experimental data: patent US20210284688A1, “MUCUS-PENETRATING PEPTIDES AND SCREENING ASSAY” (BOARD OF REGENTS, THE UNIVERSITY OF TEXAS SYSTEM, priority 2016, published 2021)
Structures can show the parent of a compound that is named as a salt. Where no end group is shown, it is not given here.

Columns and labels:
Figure 15 = experiment: Figure 15
Text: Table printed on a drawing sheet, Figure 15

Figure 17 = experiment: Figure 17
Text: Table printed on a drawing sheet, Figure 17
AK10 and Dextran 40 kDa are controls.
First reader's note: The Sample column holds peptide sequences with SEQ ID NOs as well as non-peptide controls; on the sheet the PBS/CM sub-heads stand in one merged head cell, split here into a second head row.

Compound	De/10^-9 cm^2 s^-1 | CM (Figure 15)	De/10^-5 cm^2 s^-1 | CM (Figure 17)
M13 SSQLSRPGGGS (SEQ ID NO: 30) (also: displayed on M13 phage)	1.72 10^-9 cm^2 s^-1	
M13 ISLPSPTGGGS (SEQ ID NO: 29) (also: displayed on M13 phage)	4.00 10^-9 cm^2 s^-1	
O=C1OC2(c3ccc(O)cc3Oc3cc(O)ccc32)c2ccccc21 [Fluorescein Na Salt]		1.05 10^-5 cm^2 s^-1
M13 YNSPTHHGGGS (SEQ ID NO: 31) (also: displayed on M13 phage)	1.45 10^-9 cm^2 s^-1	
